# Data as given in US20220411514A1, “ANTI-GAL3 ANTIBODIES AND METHODS OF USE FOR INSULIN RESISTANCE” (TrueBinding, Inc., priority 2021, published 2022).
# Key:
# Format in all cases: binding
# Conditions in all cases: Example 14
# [1] = molecular target: T1, human Gal3 (Homo sapiens, UniProt P17931); assay: Affinity kinetics to human Gal3 (Carterra LSA)
# T1 construct: 6xHis (linker-spaced) (C); purchased AcroBio (Acro Biosystems) GA3-H5129
# Description: (§1) Kinetics experiments were performed on a Carterra LSA at 25° C.
# (§2) Then, a dilution series of Gal3 (2, 4, 8, 16, 32, 64, and 128 nM) in HBSTE with 0.5 mg/mL BSA was injected to the whole array for 300 seconds to allow association followed by dissociation for 240 seconds. The kinetics constants were calculated by the software NextGenKIT.
# (§3) The affinity of Gal3 binding to antibody was determined by acquiring real time Ligand:Analyte binding kinetics data and fitting the data with a 1:1 monovalent binding model. The kinetic evaluation procedure determines association and dissociation constants by fitting the experimental data to a 1:1 interaction model between analyte A and ligand B:
# (§4) The affinity KD is the result of Kd divided by Ka.
# (§5) The protocol disclosed in Example 9 was generally followed.
# [2] = molecular target: mouse Gal3 (Mus musculus, UniProt P16110); assay: Affinity kinetics to mouse Gal3 (Carterra LSA)
# Description: as §1, §2, §3, §4, §5
# [3] = molecular target: His-EK-cynoGal3; assay: Affinity kinetics to cynomolgus Gal3 (Biacore T200)
# Description: In each cycle, duplicates were made by loading the same antibody to flow cells FC2 and FC4, and then analyte was flowed to all 4 flow cells. The detection was done pairwise, FC2-FC1 and FC4-FC3, to subtract non-specific binding of analyte to the surface. A cycle of 0 nM analyte was run prior to a dilution series of analyte. The 0 nM raw data were subtracted from each non-zero concentration data to minimize machine drifts. The data were analyzed by Biacore Evaluation software version 2.0. The binding affinities were characterized by fitting the kinetic sensograms to a monovalent binding model (1:1 binding).
# as §3, §4, §5
# [4] = molecular target: T2, His-EK-ratGal3 (Rattus norvegicus, UniProt P08699); assay: Affinity kinetics to rat Gal3 (Biacore T200)
# T2 sequence (P08699 1-262): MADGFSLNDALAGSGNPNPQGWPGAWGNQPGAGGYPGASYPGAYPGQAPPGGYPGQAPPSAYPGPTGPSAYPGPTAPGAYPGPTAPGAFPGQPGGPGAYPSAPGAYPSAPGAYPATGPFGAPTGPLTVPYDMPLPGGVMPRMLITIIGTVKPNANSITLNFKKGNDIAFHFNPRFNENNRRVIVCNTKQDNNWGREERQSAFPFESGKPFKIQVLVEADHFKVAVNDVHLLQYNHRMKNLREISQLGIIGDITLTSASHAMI
# Description: In each sample cycle, duplicates of the same antibody in HBS-EP+ with 0.5 mg/mL BSA at 10 μg/mL were captured to FC2 and FC4 by flowing at 10.0 μL/min for 120 seconds, and then diluted His-EK-ratGal3 in HBS-EP+ with 0.5 mg/mL BSA was injected to all 4 flow cells at 30.0 μL/min for 180 seconds, followed by dissociation for 240 seconds. A dilution series of His-EK-ratGal3 started from 300 nM, and was 1:3 diluted for 6 points. FC1 and FC3 were used as reference flow cells, and their sensograms were subtracted from FC2 and FC4 respectively to reduce non-specific binding background. Also, an additional sample cycle at 0 nM analyte was run, and its sensogram was subtracted from those of non-zero nM cycles to address machine drifts and bulk shifts. The data were analyzed by Biacore Evaluation software version 2.0. The binding affinities were characterized by fitting the kinetic sensograms to a monovalent binding model (1:1 binding).
# as §3, §4, §5
# T1 sequence (P17931 whole entry): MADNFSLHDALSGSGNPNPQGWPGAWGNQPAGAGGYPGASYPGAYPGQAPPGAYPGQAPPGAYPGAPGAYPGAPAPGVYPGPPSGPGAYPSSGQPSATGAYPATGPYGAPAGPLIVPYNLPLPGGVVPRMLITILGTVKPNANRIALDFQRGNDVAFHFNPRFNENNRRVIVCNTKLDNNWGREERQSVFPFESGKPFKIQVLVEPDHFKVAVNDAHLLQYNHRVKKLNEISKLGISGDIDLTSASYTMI
# Sequence of mouse Gal3 (P16110 whole entry): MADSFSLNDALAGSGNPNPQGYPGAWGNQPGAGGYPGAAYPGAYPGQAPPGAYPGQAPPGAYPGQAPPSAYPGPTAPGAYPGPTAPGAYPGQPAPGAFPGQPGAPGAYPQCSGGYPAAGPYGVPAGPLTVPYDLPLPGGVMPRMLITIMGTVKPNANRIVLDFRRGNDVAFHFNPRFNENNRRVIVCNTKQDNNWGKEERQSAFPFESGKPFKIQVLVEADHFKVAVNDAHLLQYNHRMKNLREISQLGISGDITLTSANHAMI
substance,measurement,setting,value
"Synagis: negative control antibody, hIgG4 backbone [reference compound]",average affinity to human Gal3,[1],did not bind
same,average affinity to mouse Gal3,[2],did not show any binding activity
same,affinity to His-EK-cynoGal3,[3],did not bind
same,average affinity to His-EK-ratGal3,[4],did not bind
